These results are taken from paper PMC5758874 (Nucleic Acids Research, 2017).

Data set [1] deals with the molecule itself. In words: crystal structure.
Data set [2] deals with the molecule itself. In words: crystal structure. This is another data set of the same source.
The data set “SEC” concerns the molecule itself. As to the kind of experiment: SEC. A general note: In gel filtration, larger molecules generally elute earlier.
In data set [3] the target is T1, RcsB WT (Salmonella enterica serovar Typhimurium, UniProt P58663 1-210).
T1 sequence: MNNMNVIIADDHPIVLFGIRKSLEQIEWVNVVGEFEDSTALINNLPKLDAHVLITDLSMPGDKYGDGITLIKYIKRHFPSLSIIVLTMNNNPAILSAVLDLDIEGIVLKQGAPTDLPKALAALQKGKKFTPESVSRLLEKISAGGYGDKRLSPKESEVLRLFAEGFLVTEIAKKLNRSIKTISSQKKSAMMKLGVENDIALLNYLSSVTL
As to the kind of experiment: EMSA.

The target of a further data set is T2, RcsB A93D (Salmonella enterica serovar Typhimurium, UniProt P58663 1-210, A93D).
T2 sequence: T1 sequence with A93D
In words: EMSA. Background: In EMSA bound probe runs differently from free probe, usually more slowly.

The target of another data set is T3, RcsB M88A (Salmonella enterica serovar Typhimurium, UniProt P58663 1-210, M88A).
T3 sequence: T1 sequence with M88A
In words: EMSA.

In another data set the target is T4, RcsB L202D (Salmonella enterica serovar Typhimurium, UniProt P58663 1-210, L202D).
T4 sequence: T1 sequence with L202D
As to the kind of experiment: EMSA.

The target of a further data set is T5, RcsB K180A (Salmonella enterica serovar Typhimurium, UniProt P58663 1-210, K180A).
T5 sequence: T1 sequence with K180A
As to the kind of experiment: EMSA.

The next data set has as its target T6, RcsB Q185A (Salmonella enterica serovar Typhimurium, UniProt P58663 1-210, Q185A).
T6 sequence: T1 sequence with Q185A
In words: EMSA.

A further data set addresses T7, RcsB D56A (Salmonella enterica serovar Typhimurium, UniProt P58663 1-210, D56A).
T7 sequence: T1 sequence with D56A
As to the kind of experiment: EMSA.

For a further data set, the target named is T8, RcsB L202F (Salmonella enterica serovar Typhimurium, UniProt P58663 1-210, L202F).
T8 sequence: T1 sequence with L202F
In words: EMSA.

The next data set addresses T9, RcsB H12A (Salmonella enterica serovar Typhimurium, UniProt P58663 1-210, H12A).
T9 sequence: T1 sequence with H12A
As to the kind of experiment: EMSA.

Data set [4] concerns the target T1, RcsB WT. As to the kind of experiment: EMSA. This is another data set of the same source.

As usually defined, the stoichiometry N is the number of molecules, sites or subunits per partner or assembly.

Changes are numbered by the printed parent chain. Numbers in names are those of the source. Where “and” joins values, the source holds several entries; their conditions need not be identical. Equal entries are not always repeated. Where two headings read alike, the source gives them in different places.

B1: RcsB from Salmonella enterica serovar Typhimurium (residues 1-210), wild type (natural protein, UniProt P58663 1-210, looked up)
chain: T1 sequence
For the molecule B1, the “stoichiometry N” value in “crystal structure [1]” is 2.

B2: RcsB S207C variant (natural protein, Salmonella enterica serovar Typhimurium, UniProt P58663 1-210, looked up)
chain: T1 sequence with S207C
Regarding B2, the “stoichiometry N” value in the data set “crystal structure [2]” was 2 and 6.

B3: Phosphorylated RcsB from S. Typhimurium (wild type incubated with acetylphosphate) (natural protein, Salmonella enterica serovar Typhimurium, UniProt P58663 1-210, looked up)
chain: T1 sequence
modifications: phosphorylated at D56 by incubation with acetylphosphate (AcP)
On to B3, for which the “stoichiometry N” value in the data set “SEC” was found to be 2.

B4: RcsB E170A variant, incubated with acetylphosphate (natural protein, Salmonella enterica serovar Typhimurium, UniProt P58663 1-210, looked up)
chain: T1 sequence with E170A
modifications: phosphorylated (D56) by incubation with acetylphosphate; reduced level against the WT
B4: in “SEC”, the binding result is listed as “binds”.

B5: RcsB M88A variant, incubated with acetylphosphate (natural protein, Salmonella enterica serovar Typhimurium, UniProt P58663 1-210, looked up)
chain: T1 sequence with M88A
modifications: phosphorylated (D56) by incubation with acetylphosphate; higher level than the WT
In the case of B5, in “SEC”, the binding result was “binds”.

B6: P1flhDC (dsDNA)
DNA 1: CGTCGAATTAGGAAAAATCTTAGGCA
DNA 2: TGCCTAAGATTTTTCCTAATTCGACG
As for B6, the binding result in the data set with RcsB WT [3] is “binds”; with RcsB A93D it was “no binding”; with RcsB M88A, “binds”; with RcsB L202D, “no binding”; in the data set with RcsB K180A it was “no binding”; with RcsB Q185A, “no binding”. The results for the binding result in the data set with RcsB D56A, in the data set with RcsB L202F and with RcsB H12A were “no binding”, “binds” and “no binding”, respectively.

B7: rcsA promoter (dsDNA)
DNA 1: CCTGTTTTACTAAGGTTTATCCGAAAATA
DNA 2: TATTTTCGGATAAACCTTAGTAAAACAGG
Take B7: the binding result in the data set with RcsB A93D was “no binding”; in the data set with RcsB WT [4] it was “binds”; with RcsB K180A, “no binding”; with RcsB Q185A, “no binding”.
